Reference: publication PMC3395087 (The EMBO Journal, 2012)

Target: GST–CDK2/His–CyclinA complex (human | bovine, UniProt P24941 1-298; P30274 1-430)
Experiment: co-IP

Sequence of GST–CDK2/His–CyclinA complex (P30274 whole entry, one chain of several): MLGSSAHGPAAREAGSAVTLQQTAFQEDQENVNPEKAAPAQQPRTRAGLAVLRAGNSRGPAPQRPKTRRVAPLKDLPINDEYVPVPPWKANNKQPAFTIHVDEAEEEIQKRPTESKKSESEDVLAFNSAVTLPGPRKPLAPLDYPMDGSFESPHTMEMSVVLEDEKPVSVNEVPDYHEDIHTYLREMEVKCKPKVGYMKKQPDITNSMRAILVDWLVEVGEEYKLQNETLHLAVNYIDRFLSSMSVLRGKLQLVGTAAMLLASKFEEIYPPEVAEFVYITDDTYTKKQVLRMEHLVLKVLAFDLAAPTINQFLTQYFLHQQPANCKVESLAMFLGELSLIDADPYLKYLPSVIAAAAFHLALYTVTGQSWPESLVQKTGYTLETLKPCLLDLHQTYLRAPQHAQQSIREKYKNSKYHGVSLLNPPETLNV

B1: GST–p57 (mouse, wild type) phosphorylated in vitro by activated p38 SAPK (natural protein)
chain: MERLASSDTFPVIARSSACRSLFGPVDHEELGRELRMRLAELNAEDQNRWDFNFQQDVPLRGPGRLQWMEVDSESVPAFYRETVQVGRCRLQLGPRPPPVAVAVIPRSGPPAGEAPDGLEEAPEQPPSAPASAVVAEPTPPATPAPASDLTSDPIPEVTLVATSDPTPDPIPDANPDVATRDGEEQVPEQVSEQGEESGAEPGDELGTEPVSEQGEEQGAEPVEEKDEEPEEEQGAEPVEEQGAEPVEEQNGEPVEEQDENQEQRGQELKDQPLSGIPGRPAPGTAAANANDFFAKRKRTAQENKASNDVPPGCPSPNVAPGVGAVEQTPRKRLR
modifications: phosphothreonine at T143 (phosphorylated in vitro by activated GST–p38 SAPK)
- fold increase of binding against non-phosphorylated GST–p57: ~4 fold
